± gives the uncertainty stated by the source.
Experiment: self-splicing fitness, log relative to wild type (ln ratio); higher = more splicing; Tetrahymena group I intron in knt gene, E. coli kanamycin selection, DiMSum; sequences stand for … in CUCUCU…GGAGGGAAAAGUUAUCAGGCAUGCACCUGGUAGCUAGUCUUUAAACCAAUAGAUUGCAUCGGUUUAAAAGGCAAGACCGUCAAAUUGCGGGAAAGGGGUCAACAGCCGUUCAGUACCAAGUCUCAGGGGAAACUUUGAGAUGGCCUUGCAAAGGGUAUGGUAAUAAGCUGACGGACAUGGUCCUAACCACGCAGCCAAGUCCUAAGUCAACAGAUCUUCUGUUGAUAUGGAUGCAGUUCACAGACUAAAUGUCGGUCGGGGAAGAUGUAUUCUUCUCAUAAGAUAUAGUCGGACCUCUCCUUAAUGGGAGCUAGCGGAUGAAGUGAUGCAACACUGGAGCCGCUGGGAACUAAUUUGUAUGCGAAAGUAUAUUGAUUAGUUUUGGAGUACUCGUGGUCG
Procedure, shortened: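 Colonies from six replicate transformations of E. coli BL21(DE3) were pooled and amplicon-sequenced on an Illumina HiSeq 2500. The library placed an intron with all eight P1ex-region nucleotides randomised inside the knt kanamycin-resistance gene on pET-22b(+), and cells grew overnight at 37°C or 30°C on LB agar with or without 25 μg/mL kanamycin (plus 100 μg/mL carbenicillin, 50 μM IPTG, 0.2% rhamnose). Fitness is the DiMSum error-weighted combination of wild-type-normalised replicate fold changes, kanamycin versus none.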

| Sequence | self-splicing fitness (ln) (30 °C) | self-splicing fitness (ln) (37 °C) |
| --- | --- | --- |
| GUUCAGCAAUAUUACGACCU | 0.353 ± 0.16 | 0.115 ± 0.17 |
| GUUCAGCAAUAUUACGACUU | -0.0631 ± 0.073 | -0.409 ± 0.079 |
| GUUCAGCAAUAUUACGAGCA | – | -1.75 ± 0.3 |
| GUUCAGCAAUAUUACGAUAC | -0.948 ± 0.078 | -0.47 ± 0.13 |
| GUUCAGCAAUAUUACGAUCU | -0.337 ± 0.095 | 0.0505 ± 0.12 |
| GUUCAGCAAUAUUACGCCCU | -0.106 ± 0.16 | 0.232 ± 0.19 |
| GUUCAGCAAUAUUACGCUGC | – | -1.76 ± 0.4 |
| GUUCAGCAAUAUUACGGAAG | -0.667 ± 0.088 | 0.566 ± 0.12 |
| GUUCAGCAAUAUUACGGCAG | -2.82 ± 0.28 | -1.82 ± 0.31 |
| GUUCAGCAAUAUUACGGUAG | -2.08 ± 0.078 | -0.531 ± 0.093 |
| GUUCAGCAAUAUUACGGUGG | -2.39 ± 0.18 | -1.96 ± 0.19 |
| GUUCAGCAAUAUUACGUAAG | -0.609 ± 0.061 | 0.5 ± 0.083 |
| GUUCAGCAAUAUUACGUAAU | 0.434 ± 0.088 | 0.484 ± 0.098 |
| GUUCAGCAAUAUUACGUACU | -1.24 ± 0.1 | 0.162 ± 0.13 |
| GUUCAGCAAUAUUACGUCCU | -0.606 ± 0.14 | 0.279 ± 0.17 |
| GUUCAGCAAUAUUACGUGAG | -0.139 ± 0.044 | -0.408 ± 0.062 |
| GUUCAGCAAUAUUACGUUAA | -1.02 ± 0.11 | -0.264 ± 0.12 |
| GUUGAGCAAUAUUACGAAAC | -1.97 ± 0.37 | – |
| GUUGAGCAAUAUUACGAAAU | -3.35 ± 0.44 | -0.897 ± 0.27 |
| GUUGAGCAAUAUUACGAACA | -2.67 ± 0.4 | -1.69 ± 0.32 |
| GUUGAGCAAUAUUACGAAUG | – | -1.68 ± 0.44 |
| GUUGAGCAAUAUUACGAUAG | – | -3.04 ± 0.31 |
| GUUGAGCAAUAUUACGAUCA | -2.74 ± 0.37 | 0.523 ± 0.28 |
| GUUGAGCAAUAUUACGAUCU | -0.691 ± 0.093 | -1.12 ± 0.11 |
| GUUGAGCAAUAUUACGCAGU | – | -1.25 ± 0.4 |
| GUUGAGCAAUAUUACGCGGA | – | -0.744 ± 0.35 |
| GUUGAGCAAUAUUACGCGUU | -4.25 ± 0.46 | -2.15 ± 0.28 |

| Sequence | self-splicing fitness (ln) (30 °C) | self-splicing fitness (ln) (37 °C) |
| --- | --- | --- |
| GUUGAGCAAUAUUACGGAUU | -2.6 ± 0.34 | -1.56 ± 0.21 |
| GUUGAGCAAUAUUACGGCAA | -1.78 ± 0.42 | -0.283 ± 0.48 |
| GUUGAGCAAUAUUACGGGAA | -3.4 ± 0.23 | -2.39 ± 0.23 |
| GUUGAGCAAUAUUACGUAAU | -1.76 ± 0.093 | -0.913 ± 0.12 |
| GUUGAGCAAUAUUACGUAUA | -2.17 ± 0.29 | – |
| GUUGAGCAAUAUUACGUCCA | -2.21 ± 0.34 | – |
| GUUGAGCAAUAUUACGUCGG | -3.61 ± 0.39 | -1.61 ± 0.27 |
| GUUGAGCAAUAUUACGUGAU | -2.14 ± 0.19 | -1.6 ± 0.27 |
| GUUGAGCAAUAUUACGUGUA | -3 ± 0.21 | – |
| GUUGAGCAAUAUUACGUUCU | -1.82 ± 0.14 | -1.2 ± 0.13 |
| GUUGAGCAAUAUUACGUUUC | -2.09 ± 0.2 | -3.1 ± 0.34 |
| GUUUAGCAAUAUUACGAGAC | -3.35 ± 0.49 | -2.08 ± 0.32 |
| GUUUAGCAAUAUUACGAGCC | -3.21 ± 0.21 | -1.56 ± 0.2 |
| GUUUAGCAAUAUUACGAGGG | -3.76 ± 0.36 | -2.73 ± 0.34 |
| GUUUAGCAAUAUUACGAUAU | -1.18 ± 0.14 | -0.528 ± 0.16 |
| GUUUAGCAAUAUUACGAUCU | -0.663 ± 0.12 | -0.195 ± 0.18 |
| GUUUAGCAAUAUUACGCUCA | 0.0718 ± 0.14 | 0.432 ± 0.2 |
| GUUUAGCAAUAUUACGCUGG | -2.55 ± 0.25 | -0.944 ± 0.26 |
| GUUUAGCAAUAUUACGGAAC | -2.74 ± 0.39 | – |
| GUUUAGCAAUAUUACGGAUA | -2.77 ± 0.27 | -1.37 ± 0.19 |
| GUUUAGCAAUAUUACGGAUC | -1.18 ± 0.11 | 0.125 ± 0.12 |
| GUUUAGCAAUAUUACGGCCG | -2.4 ± 0.18 | -0.926 ± 0.21 |
| GUUUAGCAAUAUUACGGCGC | 0.141 ± 0.16 | 0.337 ± 0.17 |
| GUUUAGCAAUAUUACGGCGU | -0.507 ± 0.094 | -0.0237 ± 0.12 |
| GUUUAGCAAUAUUACGGUAA | -1.65 ± 0.18 | -1.24 ± 0.14 |
| GUUUAGCAAUAUUACGGUCC | -0.925 ± 0.11 | -0.109 ± 0.12 |
| GUUUAGCAAUAUUACGGUUG | -3.13 ± 0.36 | -1.47 ± 0.28 |

| Sequence | self-splicing fitness (ln) (30 °C) | self-splicing fitness (ln) (37 °C) |
| --- | --- | --- |
| GUUUAGCAAUAUUACGUAAA | -2.64 ± 0.18 | -0.672 ± 0.18 |
| GUUUAGCAAUAUUACGUACC | -1.45 ± 0.48 | – |
| GUUUAGCAAUAUUACGUAUA | -2.12 ± 0.16 | -1.41 ± 0.22 |
| GUUUAGCAAUAUUACGUCUA | -1.25 ± 0.14 | -0.618 ± 0.13 |
| GUUUAGCAAUAUUACGUUCC | -0.783 ± 0.26 | – |
| GUUUAGCAAUAUUACGUUCG | -1.61 ± 0.13 | -0.589 ± 0.14 |
| GUUUAGCAAUAUUACGUUUG | -3.92 ± 0.33 | -1.45 ± 0.21 |
| UAAAAGCAAUAUUACGACCU | -0.4 ± 0.085 | 0.0792 ± 0.098 |
| UAAAAGCAAUAUUACGACUC | -1.22 ± 0.12 | -0.668 ± 0.18 |
| UAAAAGCAAUAUUACGACUU | -0.473 ± 0.098 | -0.07 ± 0.15 |
| UAAAAGCAAUAUUACGAUAA | -0.739 ± 0.077 | -0.348 ± 0.1 |
| UAAAAGCAAUAUUACGCAGC | – | -2.47 ± 0.39 |
| UAAAAGCAAUAUUACGCCAA | -2.34 ± 0.22 | -1.63 ± 0.18 |
| UAAAAGCAAUAUUACGCCAU | -3.62 ± 0.26 | -2.82 ± 0.3 |
| UAAAAGCAAUAUUACGCGAA | -2.23 ± 0.12 | -0.719 ± 0.12 |
| UAAAAGCAAUAUUACGCGAU | -3.3 ± 0.17 | -2.51 ± 0.2 |
| UAAAAGCAAUAUUACGCGGC | -3.63 ± 0.47 | -2.1 ± 0.31 |
| UAAAAGCAAUAUUACGCGUU | -2.85 ± 0.13 | -1.14 ± 0.13 |
| UAAAAGCAAUAUUACGCUAG | -1.09 ± 0.07 | -0.327 ± 0.091 |
| UAAAAGCAAUAUUACGCUCC | -2.04 ± 0.46 | -0.325 ± 0.48 |
| UAAAAGCAAUAUUACGGAAU | -3.12 ± 0.17 | -2.18 ± 0.2 |
| UAAAAGCAAUAUUACGGAGU | -3.65 ± 0.2 | -2.45 ± 0.19 |
| UAAAAGCAAUAUUACGGAUG | -0.849 ± 0.077 | 0.0272 ± 0.099 |
| UAAAAGCAAUAUUACGGAUU | -2.12 ± 0.14 | -1.56 ± 0.19 |
| UAAAAGCAAUAUUACGGCGG | -0.373 ± 0.078 | -0.0776 ± 0.11 |
| UAAAAGCAAUAUUACGGGCU | -2.79 ± 0.23 | -2 ± 0.29 |

Source: the supplement of paper PMC7877785
